Data on three molecules can be found in patent US20220194987A1.

The target of assay [1] is human BKα channel ZERO isoform (human) (UniProt Q12791). As to the kind of experiment: cell-based or functional assay.
The target is the same in assay [2]. As to the kind of experiment: phagemid display panning, positive selection on HEK293 cells expressing human BKα ZERO; enrichment over the theoretical frequency in the library.

Positions of bridges follow the written chain, without caps; N, C: chain ends. No end group written: not given here.

CPPGRGAVC (disulfide 1-9) [LS4]: in assay [1], the probability of opening, combination of pskan1 and pskan4, 10 microM, outside-out patches turned out to be 1.6 fold. As for CARGVYRVC (disulfide 1-9) [LS1], in assay [1], the probability of opening, combination of pskan1 and pskan4, 10 microM, outside-out patches came to 1.6 fold.

In turn, CRRGLVQVC (disulfide 1-9; also: TFA salt) [LS3] gave a suppression of channel openings (patch clamp, HEK293 cells) (fraction of openings suppressed) in assay [1] of 0.67. Moreover, the fold enrichment of its motifs in the phagemid panning in assay [2] is > 1000 fold.
